{
  "source": "IntAct's records for PubMed 34237462",
  "parents": {"B1": {"name": "Anterior gradient protein 2 homolog (Homo sapiens), O95994 (parent)", "chain": "MEKIPVSAFLLLVALSYTLARDTTVKPGAKKDTKDSRPKLPQTLSRGWGDQLIWTQTYEEALYKSKTSNKPLMIIHHLDECPHSQALKKVFAENKEIQKLAEQFVLLNLVYETTDKHLSPDGQYVPRIMFVDPSLTVRADITGRYSNRLYAYEPADTALLLDNMKKALKLLKTEL"}},
  "data": [
    {"variants_of": "B1", "conditions": "with muc2_human MUC2, Q02817", "values": [
      {"variant": "MEKIPVSAFLLLVALSYTLARDTTVKPGAKKDTKDSRPKLPQTLSRGWGDQLIWTQTYEEALYKSKTSNKPLMIIHHLDECPHSQALKKVFAENKEIQKLAEQFVLLNLVYETTDKYLSPDGQYVPRIMFVDPSLTVRADITGRYSNRLYAYEPADTALLLDNMKKALKLLKTEL", "note": "[H117Y]", "effect of a mutation on the interaction": "decreasing interaction strength"}
    ]}
  ]
}
